Measured values: patent US20040132642A1, “Methods of inhibiting metastasis or growth of a tumor cell” (Government of the U.S.A., represented by the Secretary, …, priority 2002, published 2004)

Tested on: CXCR4-B16 cells
Assay: adhesion of CXCR4-B16 cells to resting DMEC in parallel plate flow chamber
Format: cell-based, murine
Conditions: exogenously added chemokine
Procedure: Prior to interaction with tumor cells, resting confluent DMEC or LMEC were exposed to 100 ng/ml of recombinant CXCL12 or CCL21 for 15 min at 20° C. as described (Cinamon et al., Nat. Immunol. 2: 515-22 (2001)). After unbound chemokine was washed away, calcein-AM-labeled (Molecular Probes, Eugene, Oreg.) CXCR4- or pLNCX2-B16 cells (2.5×10^5/ml in B16 medium) were injected at 1.5 dynes/cm^2 into a parallel plate flow chamber (Glycotech, Gaithersburg, Md.) containing confluent DMEC or LMEC. In some cases, tumor cells were treated with pertussis toxin (PTX, Calbiochem, San Diego, Calif.) at 100 ng/ml for 2 hours at 37° C. to block Gi-protein-coupled signaling. After two min, flow was stopped, which enabled B16 cells to interact with MEC in the absence of shear stress. After 5 min, shear was re-established at 1.5 dynes/cm^2 for up to 2 min in order to detach unbound cells; adherent cells were digitally photographed in 5-6 random fields (each field=1.18 mm^2) with excitation at 488 nm and emission at 513 nm using sufficient exposure time (˜1 s) to allow distinction between non-moving and moving cells (which appeared as dim streaks) (Fitzhugh et al. (2000), supra). Cells were then counted with the software program IPlab (Scanalytics, Fairfax, Va.). […]

B1: CCL21: recombinant chemokine used as control on DMEC (protein, UniProt O00585 24-134, looked up)
C-C motif chemokine 21: SDGGAQDCCLKYSQRKIPAKVVRSYRKQEPSLGCSIPAILFLPRKRSQAELCADPKELWVQQLMQHLDKTPSPQKPAQGCRKDRGASKTGKKGKGSKGCKRTERSQTPKGP
For B1, the “stimulation of adhesion of CXCR4-B16 cells to DMEC” value was “no effect”.
